# Measured values as given in the RNAGym collection of RNA variant scans (doi:10.1073/pnas.2313332121).
# Fewer inactive variants are shown than the library holds.
# B1: TPR 5TU (parent)
# chain: GGAUCUUCUCGAUCUAACAAAAAAGACAAAUCUGCCACAAAGCUUGAGAGCAUCUUCGGAUGCAGAGGCGGCAGCCUUCGGUGGCGCGAUAGCGCCAACGUUCUCAACUAUGACACGCAAAACGCGUGCUCCGUUGAAUGGAGUUUAUCAUG
# Variants of: B1
# Test: polymerase ribozyme fitness, log enrichment relative to wild type (log ratio); higher = more active; in vitro selection for triplet polymerase activity
# Procedure, shortened: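 Each subunit of a heterodimeric triplet polymerase ribozyme was represented by a PCR-built, transcribed mutant library that underwent triplicate single-round in vitro selection with frozen incubation at −7 °C. Extended constructs were recovered by gel excision, streptavidin-bead capture and RT-PCR, and Illumina sequencing of input and output libraries kept genotypes with ≥10 input reads and ≥1 read per output. Fitness is the logarithm of genotype enrichment relative to wild-type enrichment, from inverse-variance-weighted replicate averages, with a logarithm base of 2.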
row,Variant,polymerase ribozyme fitness (log ratio)
1,GGAUCUUCUCGAUGUAACAAAAAAGACAAAUCUGCUACAAAGCUGGAGAGCAUCUUCGAAUGCAGAGGCGGCAGCCUUCGGUGGCGCGAUAGCGUCGUCGUUCUCAACUAUGACACGCAAAACGAGUGCUCCGUUGAAGGGAGUUUAUCAUG [C14G C36U U45G G59A C95U A97G A98U C125A U139G],-4.03
2,GGAUCUUCUCGAUGUAACAAAAAAGACAAAUCUGCCACAAAGCUUGAGAGUAUCUUCGGAAGCAGAGGCGGCAGCCUUCGGUGGCGCGAUAGCGCCAACGUUCUCAACUAUGACACGCAAAACGCGUGCUCCGUUGAAUGGAGUUUAUCAUG [C14G C51U U61A],-4.06
3,GGAUCUUCUCGAUGUAACAAAAAAGACAAAUCUGCCACAAAGCUUGAGAGCAUCUUCGGAUGCAGAGGGGGCAGCCUUCGGUGGCGCGAUAGCGCAAACGUUCUCAACUAUGACACGCAAAACACGUGCUCCGUUGAAUGGAGUUUAUCAUG [C14G C69G C96A G124A],-3.69
4,GGAUCUUCUCGAUGUAACAAAAAAGACAAAUCUGUCACAAAGCUUGAGAGCAUCUUCGGAUGCAGAGGCGGCAGCCUUCGGUGGCGCGAUAGCGUCAACGAUCUCAACUAUGACACGCAAAACGCGUGCUCCGUUGAAUGGAGUUUAUCAUG [C14G C35U C95U U101A],-3.82
5,GGAUCUUCUCGAUGUAACAAAAAAGACAAAUCUGCCACAAAGCUUGAGAGCAUCUUCGGAUGUAGACGCGGCAGCCAUCGGUGGAGCGAUAGCGCCAACGUUCUCAACUAUGACACGCAAAACCCGUGCUCCGUUGAAUGGAGUUUAUCAUG [C14G C63U G67C U77A C85A G124C],≤ -4.2
6,GGAUCUUCUCGAUGUAACAAAAAAGACAAAUUUGCCACAAAGCUUGAAAGCAUCUUCGGAUGCAGAGGCGGCAGCCUUCGGUGGCGCGAUAGCGCCAACGUUUUCAACUAUGACACGCAAAACGCGCGCUCCGUUGAAUGGAGUUUAUCAUG [C14G C32U G48A C103U U127C],≤ -4.2
7,GGAUCUUCUCGAUGUAACAAAAAAGACAAAUCUGACACAAAGCUUGAGAGCAUCUUCGGGUGCAGAGGCGGCAGCCUUCGGUGGCGCGAUAGCGCCAACGUUCUCAACUAUGACACGCAAAACGCGUGCCCCGCUGAAUGGAGUUUAUCAUG [C14G C35A A60G U130C U134C],≤ -4.2
8,GGAUCUUCUCGAUGUAACAAAAAAGACAAAUCUGCCACAAAGCUUGAGAGUAUCUUCGGAUGCAGAGGCGGCAGCCUUCGGUGGCGCGAUAGCGCUAACGUUCUCAACUAUGACACGCAAAACGCGUGCUCCGUUGAAUGGAGUUUAUCAUG [C14G C51U C96U],-3.1
9,GGAUCUUCUCGAUGUAACAAAAAAGACAAAUGUGCCACAAAGCUUGAGAGCAUCUUCGGAUGCAGAGGCGGCAGCCUUCGGUGGCGCGAUAGCGCCAACGUUCUCAACUAUGACACGCAAAACGCGUGCUCCGUUGAAUGUAGUUUCUCAUG [C14G C32G G141U A147C],≤ -4.2
10,GGAUCUUCUCGAUGUAACAAAAAAGACAAAUCUGCCACAAAGAUUGAGAGCAUCUUCGGAUGCAGAGGCGGCAGCCUUCGGUGGCGCUAUAGCGCCAACGUUCUCAACUUUCACACGCAAAACGCGGGCUCCGUUGAAUGGAGUUUAUCAUG [C14G C43A G88U A110U G112C U127G],≤ -4.2
11,GGAUCUUCUCGAUGUAACAAAAAAGACAAAUCUGCCAUAAAGCUUGAGAGCAUCUUCGGAUGCAGAGUCGGCAGCCUUCUGUGGCGCGAUGGCGCCAACGUUAUCAACUAUGACACGCAAAACGCGUGCUCCGUUGAACGGAGUUUAUCAUG [C14G C38U G68U G80U A91G C103A U139C],≤ -4.2
12,GGAUCUUCUCGAUGUAAUAAAAAAGACAAAUCUGCCACAAAGCUUGAGAGCAUCUUCGGAUGCAGAGGCGGCAGCCUUCGGUGGCGCGAUAGCGCCAACGUUCUCAACUAUGACACGCAAAACGCGUGCUCCGUUGAAUGGAGCUUAUCAUG [C14G C18U U144C],-2.22
13,GGAUCUUCUCGAUGUAACAAAAAAGACAAAUCUGCCAAAAAGCUUGAGAGCAUCUUCGGGUGCAGAGGCGGCAGCCACCGGUGGCGGGAUAGCGCCAACGUUCUCAACUAUGACACGCAAAACGAGUGCUCCGUUGAAGGGAGUUUAUCAUG [C14G C38A A60G U77A U78C C87G C125A U139G],≤ -4.2
14,GGAUCUUCUCGAUGUAACAAAAAAGACAAAUCUGCCACAAAGCUUGAGAGCAUCUUAGGAUGCAGAGGCGGCAGCCUUCGGUGGCGCGAUAACGCUAACGUUCUCACCUAUGACACGCAAAACUCGUGCUCCGUUGAAUGGAGUUUAUCAUG [C14G C57A G92A C96U A107C G124U],≤ -4.2
15,GGAUCUUCUCGAUGUAACAAAAAAGACAAAUGUGCCACAAAGCUUGAGAGCAUCUUCGGAUGCAGAGGCGGCAGCCUUCGGUGGCGCGAUAGCGCCAACGUUCUCAACUAUGACACGCAAAACGCGUGCUCCGUUGAAUGGAGUUUAUCAUG [C14G C32G],-4.17
16,GGAUCUUCUCGAUGUAACAAAAAAGAGAAAUCUGCCACAAAGCUUGAGAGCAUCUUCGGAUGCAGAGGCGGCAGCCUUCGGUGGCGCGAUAGCACCAACGUUCUCAACUAUGACACGCAAAACGCGUGCUCCGUUGAAUGGAGUUUAUCAUG [C14G C27G G94A],≤ -4.2
17,GGAUCUUCUCGAUGUAACAAAAAAGACAAAUCUGCCACAAAGCUUGAGAGCAUCUUAGGAUGCAGAGGCGGCAGCCUUCGGUGGUGCGAUAGCGCCAAAGUUCUCAACUAUGACACGCAAAAUGCGUGCUCCGUUGAAUGGAGUUUAUCAUG [C14G C57A C85U C99A C123U],-3.49
18,GGAUCUUCUCGAUGUAACAAAAAAGACAAAUCUGCUACAAAGCUUGAGAGCAUCUUCGGAUGCAGAGGCGGCAGCCUUCGGUGGCGCGAUACCGCCAACGUUCUCAACUAUGACACGCAAAACGCGUGCUCCGUUGAAUGGAGUUUAUCAUG [C14G C36U G92C],≤ -4.2
19,GGAUCUUCUCGAUGUAACAAAAAAGAUAAAUCUGCCACAAAGCUUGAAAGCAUCUUAGGUUGCAGAGGCGGCAGCCUUCGGUGGCGCCAUAGCGCCAACGUUCUCUACUAUGACACGCAAAACGCGUGCUCCGUUGAAUGGAGUUUAUCAUG [C14G C27U G48A C57A A60U G88C A106U],≤ -4.2
